Here are results for one molecule from patent publication US8597922B2, “Methods and compositions for producing olefins” (LS9, Inc., priority 2007, dated 2013).

Read-outs that look alike come from different tables or passages of the source.

One data set concerns E. coli C41 ΔfadE. It is filed as cell-based. The procedure: Genomic DNA encoding C. efficiens YS-134 (DSMZ44549) orfCE2459 (SEQ ID NO:6) was cloned into the NcoI and EcoRI sites of vector OP-80 (pCL1920 derivative) under the control of the Ptrc promoter. The resulting construct was then transformed into E. coli C41 ΔfadE.
The cells were grown at 37° C. in M9 minimal media supplemented with 20 μg/mL uracil, 1% glucose (w/v), and 100 μg/mL spectinomycin. When the culture reached an OD600 of 0.8 to 1.0, it was induced with 1 mM IPTG supplemented with 0.5 mM delta-aminolaevulinic acid (heme biosynthesis precursor), and 0.05% stearic acid (as a substrate for orfCE2459). The temperature was shifted to 25° C. and cells were allowed to grow for an additional 18-20 h Cells from 1 mL of culture were resuspended with 100 μL of methanol, sonicated for 30 min, and extracted with 300 μL of ethyl acetate. After vortexing for 15 min, 300 μL of water was added, and the mixture was vortexed for another 15 min before centrifugation at 15,000 rpm for 10 min. The solvent layer was analyzed by GC-MS.
Genomic DNA encoding Kokuria rhizophila DC2201 orfKRH21570 (SEQ ID NO:8), which was codon optimized (SEQ ID NO:9) for expression in E. coli, was cloned into the NdeI and XhoI sites of vector OP-183 (pACYC177 derivative) under the control of the Ptrc promoter. The resulting construct was then transformed into E. coli C41 ΔfadE. The cells were grown, extracted, and analyzed as in described in Example 7.
The genomic DNA encoding Bacillus subtilis fatty acid hydroxylase, Cyp152A1 (SEQ ID NO:13) or P450Bsβ, was cloned into the NdeI and XhoI sites of vector OP-183 (pACYC177 derivative) under the control of the Ptrc promoter. The construct was used as a template to introduce a mutation at position 85 changing the Glu to His using the following primer: GTTAATGCGATTCAcGGAATGGATGGC. The resulting constructs were then transformed into E. coli C41 (ΔfadE). The cells were grown at 37° C. in M9 minimal media supplemented with 20 μg/mL uracil, 1% glucose (w/v), and 100 μg/mL carbenicillin. When the culture reached OD600 of 0.8-1.0, it was induced with 1 mM IPTG; supplemented with 0.5 mM delta-aminolaevulinic acid (heme biosynthesis precursor) and 0.05% stearic acid (as a substrate for Bsb). The temperature was shifted down to 25° C. and cells were allowed to grow for an additional 18-20 h. Cells from 1 mL of culture was resuspended with 100 μL of methanol, sonicated for 30 min, and extracted with 300 μL of ethyl acetate. After vortexing the extract for 15 min, 300 μL of water was added, vortexed for another 15 minutes before centrifugation at 15,000 rpm for 10 minutes. The solvent layer was analyzed by GC-MS.

Data set [1] can be described thus: In vitro α-olefin synthesis by purified His-tagged protein with hydrogen peroxide. Format: biochemical. The note with it: 200 μL purified protein, 200 μM hydrogen peroxide, 200 μM potassium hexadecanoate, room temperature overnight. The procedure:
E. coli C41 DE3 (ΔfadE) cells were transformed with pET15b-orfKRH21570 using routine transformation techniques. Protein expression was carried out by first inoculating 5 mL of LB broth supplemented with 100 mg/L carbenicillin with a colony of the E. coli strain which was followed by shaking the cells overnight at 37° C. to produce a starter culture. This starter culture was used to inoculate 0.5 L of LB media supplemented with 100 mg/L of carbenicillin. The culture was shaken at 37° C. until an OD600 value of 0.6 was reached, after which it was induced with 1 mM IPTG and 0.5 mM delta-aminolaevulinic acid. The culture was then shaken at 25° C. for approximately 18 h. The protein was purified as described in Example 12.
To assay the activity of ORF_KRH21570, 200 μL of purified protein was incubated with 200 μM of hydrogen peroxide and 200 μM of potassium hexadecanoate. As a negative control, the same reaction was conducted, but without the addition of either purified protein (100 mM sodium phosphate pH 7.2 was used in its place) or free fatty acid. The reactions were performed in duplicates and incubated at room temperature overnight. […] Trimethylanilinium hydroxide was added to the ethyl acetate layer at a 1:1 ratio and the extracts analyzed by GC/MS using the MAR_splitless_short method. […]

B1: orf_KRH21570: ORF880 homolog P450 enzyme from Kokuria rhizophila DC2201, YP_001856010 (protein, listed as Kokuria rhizophila)
chain: MTSPFGQTRSEQGPSLLRSGYLFASRARRRAGLSSDSGCPVRMPLLGKQTVLVRGEEGVKLFYDTSRVRRDGAMPGVVQGPLFGAGAVHGLDGEAHRVRKNQLADMAYEDERVAAYKPFVAEELENLVARWKDGDNVYDSTAIAFGRASFRWAGLQWGVPEMDRWARRMSRLLDTFGRPATHLVSRLDRIALDRRFAALIKDVRAGKVNAPEDSVLAHMAALVDEHGELVDAKTAGIELQNLTRPNVAVARFAAFAATALVEHPEWVERIRAASEQRGGTLLDVPEAVAFAQEVRRVYPFVPMLPAEVTQDTEIQGCPVHKGERVVLDILGTNTDPTSWDRAATFDPERFLGVEDAEAITTFIPQGGAEVRTGHRCPGEKIAVTSLSAAVVALCRPEVQLPGDQDDLTFSWTHMLTRPVTGVRVRTTR
With B1, the α-olefin produced was 1-heptadecene in the data set on E. coli C41 ΔfadE (with 0.05% stearic acid feeding) and 1-heptadecadiene in the data set on E. coli C41 ΔfadE (without stearic acid feeding, grown on glucose). The “α-olefin formed from hexadecanoic acid” value in data set [1] is 1-pentadecene.
